{"source": "patent US20060287503", "about": "“Retinoid X receptor-interacting polypeptides and related molecules and methods” (published 2006)", "key": {"[1]": {"biological_target": "T1, RIP14-1/RXRalpha heterodimer (Mus musculus / Homo sapiens, UniProt Q60641-2;P19793 Q60641-2:1-484,P19793:1-462)", "T1 sequence (Q60641 other isoform, or with tags, fused parts or gaps, chain 1 of 2)": "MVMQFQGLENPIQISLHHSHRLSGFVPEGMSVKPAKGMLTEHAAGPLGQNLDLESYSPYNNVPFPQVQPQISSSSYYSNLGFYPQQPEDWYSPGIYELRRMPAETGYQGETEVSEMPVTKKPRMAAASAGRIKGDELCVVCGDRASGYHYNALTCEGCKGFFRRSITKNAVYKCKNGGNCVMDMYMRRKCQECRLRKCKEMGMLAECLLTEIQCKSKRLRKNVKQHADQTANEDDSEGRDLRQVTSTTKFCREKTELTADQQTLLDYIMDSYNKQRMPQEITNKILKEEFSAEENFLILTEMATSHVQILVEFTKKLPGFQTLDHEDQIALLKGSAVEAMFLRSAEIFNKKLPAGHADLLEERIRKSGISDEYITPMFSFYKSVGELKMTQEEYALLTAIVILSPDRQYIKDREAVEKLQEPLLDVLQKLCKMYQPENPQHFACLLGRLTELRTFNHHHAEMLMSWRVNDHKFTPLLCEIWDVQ", "T1 sequence (P19793 whole entry, chain 2 of 2)": "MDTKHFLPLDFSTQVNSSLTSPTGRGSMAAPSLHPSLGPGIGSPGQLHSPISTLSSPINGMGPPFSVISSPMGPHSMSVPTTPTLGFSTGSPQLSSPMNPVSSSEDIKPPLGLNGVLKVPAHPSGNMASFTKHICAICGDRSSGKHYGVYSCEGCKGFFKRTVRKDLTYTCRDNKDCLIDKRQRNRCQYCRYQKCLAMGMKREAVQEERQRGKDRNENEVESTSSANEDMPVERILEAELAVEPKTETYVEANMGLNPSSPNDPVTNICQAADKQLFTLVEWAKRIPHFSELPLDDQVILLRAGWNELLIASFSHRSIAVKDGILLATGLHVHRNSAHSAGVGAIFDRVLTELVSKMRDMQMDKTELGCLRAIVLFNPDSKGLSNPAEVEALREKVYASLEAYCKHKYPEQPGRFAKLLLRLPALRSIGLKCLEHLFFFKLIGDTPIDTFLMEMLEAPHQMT", "assay": "EMSA; competition with 50-fold unlabeled EcRE (specific) and AP1 (nonspecific) tested; 40 mM KCl, 2.5 mM MgCl2, pH 8.0, room temp", "conditions": "tags: human RXRalpha expressed in E. coli; label: 32P end label", "protocol": "(§1) In panel A, RIP14-1 without (lane 2) or with RXR (lanes 3-5) was incubated with the hsp27 promoter (EcRE) end-labeled with [³²P]ATP. In panel B, RIP15 (lanes 2-5) and RIP14-1 (lanes 9-12) without (lanes 2 and 9) or with (lanes 3-5 and 10-12) RXR were incubated with βRARE end-labeled with [³²P]ATP. In both cases, a 50-fold molar excess of unlabeled specific (sp; EcRE, lane A4 and βRARE, lanes B4 and B11) or nonspecific (ns; AP1, lanes A5, B5, and B12) oligomers were added with the labeled probe. Incubations with probe alone are shown in lanes A1, B1, and B8. Cell lysates used for in vitro translation were also incubated with the probes without (lanes A6 and B6) or with (lanes A7 and B7) RXR. RIP14-2 and the RIP14-1 chimeras containing a four amino acid insertion in the D domain (RIP14C) were also incubated with βRARE and RXR as shown in lanes B13 and B14, respectively. Specific bands are indicated by arrows.\n(§2) To identify DNA sequences recognized by each orphan, in vitro translated proteins were used for gel shift assays. Because of their strong sequence similarity to the ecdysone receptor, a well studied ecdysone response element (EcRE) from the Drosophila hsp27 promoter (Riddilough et al., EMBO J. 6:3729-3734, 1987) was tested for binding to both orphans, in the presence and absence of RXR. […]"}, "[2]": {"biological_target": "RIP15/RXRalpha heterodimer (Mus musculus / Homo sapiens, UniProt Q60644;P19793 Q60644:1-446,P19793:1-462)", "sequence (P19793 whole entry, canonical isoform, one chain of several)": "as the sequence (P19793 whole entry, chain 2 of 2) above", "assay": "EMSA; with RXR", "conditions": "tags: human RXRalpha expressed in E. coli; label: 32P end label", "protocol": "(§3) The binding of the RIP14-2 isoform to this element was weaker than that of RIP14-1 when similar amounts of RIP14 proteins were used. […] Several other DNA elements were tested in the gel shift assay, including the retinoic acid response element from the promoter of the human RARβ2 isoform (βRARE) (de The et al., Nature 343:177-180, 1990). In the presence of RXR, the βRARE was bound by both the RIP14 isoforms and RIP15 (FIG. 8, panel B). Again, the binding of the RIP14-2/RXR heterodimer was weaker than the RIP14-1/RXR heterodimer when a similar amount of RIP14 proteins were used (FIG. 8, panel B, lanes 10 and 14).\n(§4) RIP14 and RIP15 proteins were produced by in vitro translation (Promega TNT, Madison, Wis.) using expression vectors containing the RIP genes following a T7 promoter. To generate full length RIP14-2 constructs, fragments from RIP14-1 clone No. 15 containing regions from the middle of the E domain to the 3′ end replaced the corresponding regions of RIP14-2 Clones No. 3 or 12, respectively. Sequences were confirmed by DNA sequencing. Human RXRα protein was expressed in E. coli using a bacterial expression vector based on the bacteriophage T7 promoter (Carter et al., Mol. Cell. Biol. in press., 1994). […]"}, "RIP15": {"biological_target": "T2, RIP15 (Mus musculus, UniProt Q60644 SEQ:1-446)", "T2 chain": "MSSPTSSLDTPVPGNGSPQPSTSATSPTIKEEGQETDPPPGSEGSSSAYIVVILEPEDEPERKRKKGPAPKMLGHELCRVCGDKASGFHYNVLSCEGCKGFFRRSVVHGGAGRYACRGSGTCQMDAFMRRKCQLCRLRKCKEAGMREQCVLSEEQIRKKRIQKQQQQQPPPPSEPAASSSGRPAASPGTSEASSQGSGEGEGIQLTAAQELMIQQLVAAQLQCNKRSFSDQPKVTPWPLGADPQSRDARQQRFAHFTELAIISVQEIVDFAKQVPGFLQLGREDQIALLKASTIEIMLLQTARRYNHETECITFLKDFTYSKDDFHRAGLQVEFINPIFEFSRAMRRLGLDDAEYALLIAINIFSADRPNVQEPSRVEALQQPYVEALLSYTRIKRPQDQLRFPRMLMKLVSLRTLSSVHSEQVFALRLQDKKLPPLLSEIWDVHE", "assay": "EMSA; without RXR", "conditions": "label: 32P end label", "protocol": "as §3, §4"}, "[3]": {"biological_target": "T1, RIP14-1/RXRalpha heterodimer", "assay": "EMSA; competition with 50-fold unlabeled betaRARE (specific) and AP1 (nonspecific) tested", "conditions": "tags: human RXRalpha expressed in E. coli; label: 32P end label", "protocol": "as §1, §2"}}}
{"binder": "hsp27 EcRE (dsDNA) DNA 1: CTAGACAAGGGTTCAATGCACTTGTCCATCG DNA 2: CGATGGACAAGTGCATTGAACCCTTGTCTAG", "values": [{"measurement": "binding result", "setting": "[1]", "result": "binds"}, {"measurement": "binding result", "setting": "[2]", "result": "no binding"}, {"measurement": "binding result", "setting": "RIP15", "result": "no binding"}]}
{"binder": "betaRARE (dsDNA) DNA 1: GATCCGGGTAGGGTTCACCGAAAGTTCACTCGA DNA 2: TCGAGTGAACTTTCGGTGAACCCTACCCGGATC", "values": [{"measurement": "binding result", "setting": "[3]", "result": "binds"}]}
